Results as given in patent publication US20210189359A1 (UNIVERSITY OF KENTUCKY RESEARCH FOUNDATION, published 2021).
Numbering of substitutions follows the chain as printed. Names may count otherwise.

Biological target: T1, human FcRn (human, UniProt P55899 24-297; P61769 21-119, limits assumed)
T1 construct: the construct, its source and whether b2m was present are not described; also called neonatal Fc receptor
Assay: in vitro binding to human FcRn at pH 6; method not described

T1 sequence (P55899 24-297 limits assumed, chain 1 of 2): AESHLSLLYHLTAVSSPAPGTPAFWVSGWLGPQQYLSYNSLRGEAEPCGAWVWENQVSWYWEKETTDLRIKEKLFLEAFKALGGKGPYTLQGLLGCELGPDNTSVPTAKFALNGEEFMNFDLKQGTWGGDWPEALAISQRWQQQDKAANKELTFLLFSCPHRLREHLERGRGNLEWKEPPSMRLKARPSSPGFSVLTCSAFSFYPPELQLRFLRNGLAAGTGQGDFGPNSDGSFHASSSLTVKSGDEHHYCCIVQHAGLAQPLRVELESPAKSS
T1 sequence (P61769 21-119 limits assumed, chain 2 of 2): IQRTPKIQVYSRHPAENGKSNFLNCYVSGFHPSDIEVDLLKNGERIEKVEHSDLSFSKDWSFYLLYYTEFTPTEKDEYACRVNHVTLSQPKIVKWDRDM

B1: CocH-LAF6 (Fc fusion)
chain: EDDIIIATKNGKVRGMNLTVFGGTVTAFLGIPYAQPPLGRLRFKKPQSLTKWSDIWNATKYANSCCQNIDQSFPGFHGSEMWNPNTDLSEDCLYLNVWIPAPKPKNATVLIWIYGGGFQTGTSSLHVYDGKFLARVERVIVVSMNYRVGALGFLALPGNPEAPGNMGLFDQQLALQWVQKNIAAFGGNPKSVTLFGESSGAASVSLHLLSPGSHSLFTRAILQSGSANAPWAVTSLYEARNRTLNLAKLTGCSRENETEIIKCLRNKDPQEILLNEAFVVPYGTPLGVNFGPTVDGDFLTDMPDILLELGQFKKTQILVGVNKDEGTWFLVGGAPGFSKDNNSIITRKEFQEGLKIFFPGVSEFGKESILFHYTDWVDDQRPENYREALGDVVGDYNFICPALEFTKKFSEWGNNAFFYYFEHRSSKLPWPEWMGVMHGYEIEFVFGLPLERRDNYTKAEEILSRSIVKRWANFAKYGNPNETQNNSTSWPVFKSTEQKYLTLNTESTRIMTKLRAQQCRFWTSFFPKVVEPKSCDKTHTCPPCPAPELLGGPSVFLFPPKPKDTLYITREPEVTCVVVDVSHEDPEVKFNWYVDGVEVHNAKTKPREEQYNSTYRVVSVLTVLHQDWLNGKEYKCKVSNKALPAPIEKTISKAKGQPREPQVYTLPPSREEMTKNQVSLTCLVKGFYPSDIAVEWESNGQPENNYKTTPPVLDSDGSFFLYSKLTVDKSRWQQGNVFSCSVMHEALHNHYTQKSLSLSPGK
notes: Direct fusion without a linker; also called CocH3-LAF6; CocH3(529)-Fc(M6)
Q: B1 was tested. Which Kd did it give?
A: 43 nM

B2: CocH-LAF7 (Fc fusion)
chain: B1 chain with P285A
notes: Direct fusion without a linker; also called CocHl-LAF7; CocH1-LAF7
Q: B2 was tested. Which Kd did it give?
A: 43 nM

B3: CocH-LAF8 (Fc fusion)
chain: B1 chain with P285Q
notes: Direct fusion without a linker; also called CocH2-LAF8; A199S/F227A/P285Q/S287G/A328W/Y332G/A530V/M567Y/S569T/T571E/D671E/L673M mutant of BChE(529)-Fc
Q: Which Kd does the source give for B3 here?
A: 43 nM
